Laboratory results from PMC7684278.

Assays:
[1] = biological target: Cas8c, large subunit of the Desulfovibrio vulgaris type I-C Cascade (Desulfovibrio vulgaris); assay: native MS; purified type I-C Cascade with its crRNA, about 6 uM, in 100 mM ammonium acetate; positive mode; in-source trapping at -120 and -300 V to release subunits and subcomplexes
[2] = biological target: Cas7 of the Desulfovibrio vulgaris type I-C Cascade (Desulfovibrio vulgaris); assay: cryo-EM structure; purified type I-C Cascade with its crRNA, 0.3 mg/mL in 20 mM HEPES-NaOH pH 7.5, 100 mM KCl, 1 mM TCEP; graphene oxide grids; 3.1 A (3.13 A) reconstruction
[3] = biological target: Cas7 of the Desulfovibrio vulgaris type I-C Cascade (Desulfovibrio vulgaris); assay: native MS; purified type I-C Cascade with its crRNA, about 6 uM, in 100 mM ammonium acetate; positive mode; in-source trapping at -120 and -300 V to release subunits and subcomplexes

stoichiometry N [1] | stoichiometry N [2] | stoichiometry N [3] | Substance
2 | – | – | non-canonical small subunit (SSU) Cas11c of the Desulfovibrio vulgaris type I-C Cascade (domain or fragment)
– | 7 | 7 | Cas7 of the Desulfovibrio vulgaris type I-C Cascade (natural protein)
